Measured values taken from patent publication US20230174663A1 (MEDABOME, published 2023).
Where “and” joins values, the source holds several entries; their conditions need not be identical. Identical values can stand only once.

Assays:
[1] = target: T1, human TfR1-GFP fusion protein (rTfR1-GFP) expressed on the membrane of CHO-DG44 cells (human, UniProt P02786 1-760); test: FACS titration on CHO/rTfR1-GFP cells
T1 construct: whole, on cells; also called CHO/rTfR1-GFP cells; CHO/rTfR-GFP cells; not shown: GFP (also called EGFP) fused in frame to the C-terminus
T1 sequence (P02786 whole entry, the tested form may be a part): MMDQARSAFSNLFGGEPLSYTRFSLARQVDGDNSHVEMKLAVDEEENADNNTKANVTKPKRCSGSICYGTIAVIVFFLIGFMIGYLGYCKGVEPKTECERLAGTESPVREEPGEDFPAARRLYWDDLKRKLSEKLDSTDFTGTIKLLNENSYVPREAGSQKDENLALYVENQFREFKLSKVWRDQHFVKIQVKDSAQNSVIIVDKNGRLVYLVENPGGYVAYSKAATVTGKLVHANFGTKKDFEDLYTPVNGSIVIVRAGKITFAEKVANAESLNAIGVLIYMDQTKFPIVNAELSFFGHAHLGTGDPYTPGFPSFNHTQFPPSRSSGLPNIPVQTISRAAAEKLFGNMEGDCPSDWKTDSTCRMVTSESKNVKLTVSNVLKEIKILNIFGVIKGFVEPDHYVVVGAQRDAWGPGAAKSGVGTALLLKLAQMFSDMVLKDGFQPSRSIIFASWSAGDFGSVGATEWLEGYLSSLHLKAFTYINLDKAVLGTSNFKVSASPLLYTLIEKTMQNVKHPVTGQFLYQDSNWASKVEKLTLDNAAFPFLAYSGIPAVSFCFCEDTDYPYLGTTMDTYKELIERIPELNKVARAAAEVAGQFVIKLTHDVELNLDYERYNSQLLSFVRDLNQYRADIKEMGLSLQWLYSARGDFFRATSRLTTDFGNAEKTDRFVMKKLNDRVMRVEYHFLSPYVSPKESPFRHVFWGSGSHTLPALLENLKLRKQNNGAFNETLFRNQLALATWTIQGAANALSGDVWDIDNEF
From the text: The cDNA was in-frame fused with a GFP-coding DNA fragment to its C-terminus and then cloned into an in-house expression vector containing the human CMV promoter and a puromycin resistant gene (PuroR) for selection. […] CHO cell colonies stably expressing high-level EGFP were isolated and subcloned.

[2] = target: T2, recombinantly expressed human TfR1 extracellular domain with a His tag (rTfR1-ECD, ACRO Biosystems) (human, UniProt P02786 89-760); test: BLI (Octet QK), mAb captured on anti-mouse Fc (AMC) biosensors, rTfR1-ECD in solution
T2 construct: extracellular domain; Bought reagent; also called 6His-tagged rTfR1-ECD; extracellular domain of TfR1
T2 sequence (P02786 other isoform, or with tags, fused parts or gaps): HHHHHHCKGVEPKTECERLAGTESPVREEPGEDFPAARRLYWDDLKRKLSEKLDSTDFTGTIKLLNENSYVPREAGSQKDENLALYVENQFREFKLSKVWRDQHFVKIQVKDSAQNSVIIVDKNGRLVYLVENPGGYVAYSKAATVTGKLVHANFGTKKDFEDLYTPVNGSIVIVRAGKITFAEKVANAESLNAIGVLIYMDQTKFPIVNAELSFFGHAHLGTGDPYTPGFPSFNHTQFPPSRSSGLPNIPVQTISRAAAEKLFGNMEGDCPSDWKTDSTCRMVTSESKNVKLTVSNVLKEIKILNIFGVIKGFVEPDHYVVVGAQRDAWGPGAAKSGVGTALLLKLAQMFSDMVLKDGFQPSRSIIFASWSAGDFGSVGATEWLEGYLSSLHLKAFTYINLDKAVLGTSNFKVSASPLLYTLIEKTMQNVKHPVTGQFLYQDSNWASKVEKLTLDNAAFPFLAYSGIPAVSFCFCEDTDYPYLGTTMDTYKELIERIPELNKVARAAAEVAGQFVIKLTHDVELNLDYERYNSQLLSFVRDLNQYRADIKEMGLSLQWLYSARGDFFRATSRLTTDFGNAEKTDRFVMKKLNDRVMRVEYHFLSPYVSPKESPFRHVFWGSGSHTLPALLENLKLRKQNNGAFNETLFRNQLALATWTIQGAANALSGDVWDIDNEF

[3] = target: T2, recombinantly expressed human TfR1 …; test: direct ELISA, plate coated with 0.1 µg/mL rTfR1-ECD, detection anti-mouse IgG Fc-HRP
Experimental: The plate was coated with 0.1 μg/mL of purified rTfR1-ECD containing a C-terminal 6×His tag. A mouse anti-6×His mAb and an isotype control Ab were used as positive and negative controls, respectively. All the primary antibodies were in 3-fold serial dilutions with a starting concentration of 3 μg/mL. Peroxidase AffiniPure Goat Anti-Mouse IgG Fey at 1:6,000 dilution was used for detection.
3,3′,5,5′-Tetramethylbenzidine (TMB) substrate was added and absorbance at 450 nm of wavelength was measured using a SpectraMax microplate reader (Molecular Device, San Jose, Calif.).

[4] = target: T2, recombinantly expressed human TfR1 …; test: BLI (Octet QK), 10 nM mAb loaded on anti-mouse Fc sensors; same value printed in the rows 20, 8, 3.2 and 1.28 nM rTfR1-ECD; koff Error blank
[5] = target: T2, recombinantly expressed human TfR1 …; test: BLI (Octet QK), 50 nM mAb loaded on anti-mouse Fc sensors; same value printed in the rows 20, 8, 3.2 and 1.28 nM rTfR1-ECD; koff Error blank
[6] = target: T2, recombinantly expressed human TfR1 …; test: BLI (Octet QK), 10 nM mAb loaded on anti-mouse Fc sensors; same value printed in the rows 20, 8, 3.2 and 1.28 nM rTfR1-ECD; kon Error 2.12E+04, Full R^2 0.989
[7] = target: T2, recombinantly expressed human TfR1 …; test: BLI (Octet QK), 50 nM mAb loaded on anti-mouse Fc sensors; same value printed in the rows 20, 8, 3.2 and 1.28 nM rTfR1-ECD; kon Error 9.80E+03, Full R^2 0.9909
[8] = target: T2, recombinantly expressed human TfR1 …; test: BLI (Octet QK), cAb captured on anti-human Fc (AHC) biosensors, rTfR1-ECD 50 nM to 1.28 nM in solution
Experimental: (§1) Concentrations of rTfR1-ECD ranged from 50 nM to 1.28 nM by 2.5-fold serial dilutions.

[9] = target: T2, recombinantly expressed human TfR1 …; test: BLI (Octet QK), 10 nM cAb loaded on anti-human Fc sensors; same value printed in the rows 50, 20, 8, 3.2 and 1.28 nM rTfR1-ECD; koff Error blank
Experimental: as §1

[10] = target: T2, recombinantly expressed human TfR1 …; test: BLI (Octet QK), 50 nM cAb loaded on anti-human Fc sensors; same value printed in the rows 50, 20, 8, 3.2 and 1.28 nM rTfR1-ECD; koff Error blank
Experimental: as §1

[11] = target: T2, recombinantly expressed human TfR1 …; test: BLI (Octet QK), 10 nM cAb loaded on anti-human Fc sensors; same value printed in the rows 50, 20, 8, 3.2 and 1.28 nM rTfR1-ECD; kon Error 5.18E+03, Full R^2 0.9885
Experimental: as §1

[12] = target: T2, recombinantly expressed human TfR1 …; test: BLI (Octet QK), 50 nM cAb loaded on anti-human Fc sensors; same value printed in the rows 50, 20, 8, 3.2 and 1.28 nM rTfR1-ECD; kon Error 2.34E+03, Full R^2 0.9963
Experimental: as §1

Binder | IC50 [1] | Kd [2] [pM] | EC50 (read off the curve) [3] [µg/mL] | koff [4] [s⁻¹] | koff [5] [s⁻¹] | kon [6] [M⁻¹ s⁻¹] | kon [7] [M⁻¹ s⁻¹] | Kd [8] [pM] | koff [9] [s⁻¹] | koff [10] [s⁻¹] | kon [11] [M⁻¹ s⁻¹] | kon [12] [M⁻¹ s⁻¹]
MAb11-22.1 mAb (antibody, IgG1, V domains shown, Mouse hybridoma antibody, IgG1/kappa; both are kept under this molecule) VH: EVQLQQSGPELVKPGASVRISCKTSGYTFTNYYIHWMKQRPGQGLEWIGWIYPGDGNSHYNEKFKGKTTLTADKSSSTGYILLSSLTSEDSAVYFCTRDYDNYGGFAYWGQGTLVTVSA VL: IVMTQSPSSLTVTAGEKVTMSCKSSQSLLNSGNQKNYLTWYQQKPGQPPKLLIYWASTWESRVPDHFTGSGSGTDFTLTISSVQAEDLAVYYCQNDYSYPLTFGAGTKLELKR | 0.03 µg/mL and 0.04 µg/mL | < 1 | ~0.04 | < 1e-07 | < 1e-07 | 1.16e+06 | 604000 |  |  |  |  | 
MAb11-22.1 chimeric Ab (cAb) (antibody, V domains shown, not shown: constant region of human IgG1 heavy chain (CH1-CH3); constant region of human kappa light chain (CL)) VH: EVQLQQSGPELVKPGASVRISCKTSGYTFTNYYIHWMKQRPGQGLEWIGWIYPGDGNSHYNEKFKGKTTLTADKSSSTGYILLSSLTSEDSAVYFCTRDYDNYGGFAYWGQGTLVTVSA VL: IVMTQSPSSLTVTAGEKVTMSCKSSQSLLNSGNQKNYLTWYQQKPGQPPKLLIYWASTWESRVPDHFTGSGSGTDFTLTISSVQAEDLAVYYCQNDYSYPLTFGAGTKLELKR |  |  |  |  |  |  |  | < 1 | < 1e-07 | < 1e-07 | 244000 | 196000
anti-human TfR1 control mAb (R&D Systems) (antibody, V domains shown) VH: QVQLQQSGPELVKPGASVKMSCKASGYTFTNYYIHWVKQRPGQGLEWIGWIYPGDGSTKYNEKFKGKTTLTADKSSSTAYMLLSSLTSEDSAIYFCARDGSSAPKFTYWGQGTLVTVSA VL: DIVMTQSPSSLTVTAGEKVTMRCKSSQSLLNSGNQKNYLTWYQQKPGQPPKLLIYWASTRESGVPDRFTGSGSGTDFTLTISSVQAEDLAVYYCQNDYSYPLTFGAGTKLELK | ~0.1 µg/mL |  |  |  |  |  |  |  |  |  |  | 
